According to paper PMC3201810:

Biological target: Bacillus cereus ChbC (EIIC component of the diacetylchitobiose phosphotransferase system) (Bacillus cereus)
Assay: SEC-MALS

Bacillus cereus ChbC (EIIC component of the diacetylchitobiose phosphotransferase system) (natural protein)
stoichiometry N: 2
